Assay results published in patent publication US20120269814A1 (Amgen, published 2012).
Read-outs that look alike come from different tables or passages of the source.

T1: rhu-c-Mpl (AA1-490-6H) (human, UniProt P40238 26-490)
T1 construct: Entire 490 amino acid extracellular domain with six C-terminal histidines, expressed in CHO cells; also called recombinant human c-Mpl protein; soluble c-Mpl
T1 sequence: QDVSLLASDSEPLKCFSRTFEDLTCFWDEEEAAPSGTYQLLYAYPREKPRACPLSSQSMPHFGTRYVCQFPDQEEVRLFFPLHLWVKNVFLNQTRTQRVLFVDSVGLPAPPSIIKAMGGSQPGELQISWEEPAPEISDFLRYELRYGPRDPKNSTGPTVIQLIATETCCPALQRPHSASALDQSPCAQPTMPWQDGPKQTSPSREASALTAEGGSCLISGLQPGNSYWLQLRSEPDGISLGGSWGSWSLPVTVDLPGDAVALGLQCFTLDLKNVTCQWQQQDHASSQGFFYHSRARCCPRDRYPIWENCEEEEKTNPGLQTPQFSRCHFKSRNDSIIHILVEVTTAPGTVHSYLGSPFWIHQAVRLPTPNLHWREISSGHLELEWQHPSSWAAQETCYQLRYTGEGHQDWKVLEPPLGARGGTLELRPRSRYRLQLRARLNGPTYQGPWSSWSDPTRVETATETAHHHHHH

T2: human c-Mpl (full length, on cells) (human, UniProt P40238 26-635)
T2 sequence: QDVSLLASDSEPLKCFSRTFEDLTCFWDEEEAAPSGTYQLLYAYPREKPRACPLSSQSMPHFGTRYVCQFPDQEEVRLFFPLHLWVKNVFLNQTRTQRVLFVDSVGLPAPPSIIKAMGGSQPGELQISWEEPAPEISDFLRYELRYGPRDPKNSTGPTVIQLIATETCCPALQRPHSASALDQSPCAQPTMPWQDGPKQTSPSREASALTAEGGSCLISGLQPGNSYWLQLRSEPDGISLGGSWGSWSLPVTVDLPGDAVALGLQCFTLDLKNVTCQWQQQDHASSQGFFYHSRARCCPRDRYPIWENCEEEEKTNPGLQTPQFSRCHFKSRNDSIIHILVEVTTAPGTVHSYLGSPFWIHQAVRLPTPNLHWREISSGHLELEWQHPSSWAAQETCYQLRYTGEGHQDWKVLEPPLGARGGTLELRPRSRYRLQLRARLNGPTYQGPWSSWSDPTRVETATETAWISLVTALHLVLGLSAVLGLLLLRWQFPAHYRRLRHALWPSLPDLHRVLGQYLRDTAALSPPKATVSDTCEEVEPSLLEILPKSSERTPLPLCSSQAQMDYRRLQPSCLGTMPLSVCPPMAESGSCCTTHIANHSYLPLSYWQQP


Legend:
rhu-c-Mpl (AA1-490-6H) = biological target: T1, rhu-c-Mpl (AA1-490-6H); assay: solution-equilibrium Biacore with soluble rhu-c-Mpl, KinExA Pro fit
Protocol: The affinities of these anti-c-Mpl mAbs to the soluble c-Mpl protein were determined in a solution-based Biacore analysis. Briefly, a fixed amount of rhu-c-Mpl was incubated with various concentrations of anti-c-Mpl mAbs at room temperature for ˜4 hours before being run over the same anti-c-Mpl mAbs immobilized at high density on a CM5 surface. In this assay the binding signal is proportional to the concentration of free rhu-c-Mpl at equilibrium with a given antibody concentration. The dissociation equilibrium constant (KD) was obtained from nonlinear regression of the competition curves using an n-curve one-site homogeneous binding model (KinExATM Pro software).

[1] = biological target: T2, human c-Mpl (full length, on cells); assay: cell-based or functional assay
[2] = biological target: T2, human c-Mpl (full length, on cells); assay: cell-based or functional assay; remark: listed apart in the source

Kd (rhu-c-Mpl (AA1-490-6H)) [nM]	IC50 (nM), inhibition of rhuTPO (26 pM)-driven proliferation of 32D-hu-c-Mpl cells (CellTiter-Glo) [1] [nM]	IC50 (nM), inhibition of rhuTPO (26 pM)-driven proliferation of 32D-hu-c-Mpl cells (CellTiter-Glo) [2] [nM]	Binder
0.036	0.12	–	mAb 1.111 (antibody, IgG1, V domains shown, also called A4) VH: DVQLQESGPGLVKPSQSLSLTCTVTGYSITIDYTWNWIRQFPGNKLEWMGYITYSGSTDYNPSLKSRSSITRDTSMNQFFLQLNSVTTEDTATYYCARLGRRYALDYWGQGTSVTVSS VL: DIQMTQSSSSFSVSLGDRVTITCKASEDIYIRLAWYQQKPGNAPRLLISAATSLETGIPSRFSGSGSGEDYTLTITSLQTEDVATYYCQQYWTTPWTFGGGTKLEIKR
0.48	–	5.32	mAb 1.169 (antibody, IgG1, V domains shown, also called A6) VH: QVQLQQSGPELVKPGASVKISCKASGYGFSSSWMNWVKQRPGKGLEWIGRIYPGDGETSYNGEFKGKATLTADKSSSTAYMQLSSLTSEDSAVYFCASYYEGGYWGQGTLVTVSA VL: DIVMTQAAPSLPVTPGESVSISCRSSKSLLHSNGNTYLFWFLQRPGQSPHLLIYRMSNLASGVPDRFSGSGSGTAFTLRISRVEAEDVGVYYCMQHLEYPYTFGGGTKLEIKR

The remaining lines, values behind:

Binder	Kd (rhu-c-Mpl (AA1-490-6H)) [nM]	IC50 (nM), inhibition of rhuTPO (26 pM)-driven proliferation of 32D-hu-c-Mpl cells (CellTiter-Glo) [1] [nM]	IC50 (nM), inhibition of rhuTPO (26 pM)-driven proliferation of 32D-hu-c-Mpl cells (CellTiter-Glo) [2] [nM]
mAb 1.75 (antibody, IgG2b, V domains shown, also called A2) VH: EVQLVESGGGLVQPKGSLKLSCAASGFSFNTYAMNWVRQAPGKGLEWIAHIRSKSNNFATYYADSVKDRFSISRDASENILFLQMNNLKTEDTAMYYCVRQGGDFPMDYWGQGTSVTVSS VL: QIVLTQSPAIMSASPGEKVTISCSASSSVSYMYWYQQKPGSSPKPWIYRTSNLASGVPARFSGSGSGTSYSLTISNMEAEDAAAYYCQQYHSYPTTFGGGTKLEVK	0.01	0.05	–
mAb 1.6 (antibody, IgG2b, V domains shown, An Alexa Fluor 647 conjugate was used for CD34+ cell staining; also called Ab 1.6.1; A1) VH: DVQLQESGPGLVKPSQSLSLTCTVTGYSITSDYTWNWIRQFPGNKLEWMGYITYSGSTSYNPSLKSRNSITRDTSKNQFFLQLNSVTTEDTATYYCARLGRRYTMDYWGQGTSVTVSS VL: DIQMTQSSSSFSVSLGDRVTITCMASEDIYIRLAWYQQKPGNAPRLLISAATSLETGVPSRFSGSGSGKDYTLSITSLQTEDVGTYYCQQYWSSPWTFGGGTKLEIN	0.036	0.03	–
mAb 1.36 (antibody, IgG1, V domains shown, also called A5) VH: QVQLQQSGPELVKPGASVKISCKASGYGFSNSWMNWVRQRPGKGLEWIGRIYPGDGETSYNGEFVGKATLTADKSSSTAYMHLSSLTSEDSAVYFCASYYEGGYWGQGTLVTVS VL: DIVMTQAAPSVPVTPGESVSISCRSSKSLLHSNGNTYLYWFLQRPGQSPQLLIYRMSNLASGVPDRFSGSGSGTAFTLRISRVEAEDVGVYYCMQHLEYPYTFGGGTKLEIKR	0.45	–	1.25
mAb 1.78 (antibody, IgG1, V domains shown, also called A3) VH: QVQLQQSGPELVKPGASVKMSCKASGYAFSSSWLNWVRQRPGKGLEWIGRIYPGDGENHYNGKFKGKATLTADKSSSTGYMQLSSLTSEDSAVYFCASYYEGGYWGQGTLITVSA VL: DIVMTQAAPSIPVTPGESVSISCRSDKSLLHSNGNTYLFWFLQRPGQSPQLLIYRMSNLASGVPDRFSGSGSGTAFTLRISGVEAEDVGVYYCMQHLEYPYTFGGGTKLEIK	0.072	–	0.23
